Tests used:
blood clotting activity = assay: Blood clotting activity (APTT) of purified r-hFIX; type: biochemical, human; settings: purified from medium of 200 nM siRNA SMART pool treated (r-hFIX+VKORC1) BHK cells
Description: Warfarin sensitive VKOR activity was measured as described (19) by estimating the percent conversion of vitamin K1 2,3-epoxide (Vit.K>O) to vitamin K1. The vitamin and the epoxide were separated on a reversed phase C18 column in 100% methanol and quantified against external standards. VKOR activity was either triggered with 5 mM DTT or 0.32 mM reduced RNAse. Reduced bovine RNAse was prepared according to a modified method originally described by Rupp et al. (20). One hundred mg RNAse was dissolved in 500 μl of 0.2 M Tris-Acetate, 6 M guanidinium hydrochloride, pH 8.0. Seventy-two mg DTT was added and the solution was left at 37° C. for one hour. Then the pH was adjusted to 4.0 with acetic acid and DTT, Tris and guanidinium hydrochloride removed by gel filtration on a column of Sephadex G-25 equilibrated in 0.1 M acetic acid. Prior to chromatography, the column resin and the 0.1 M acetic acid were saturated with N2. The void volume fraction containing reduced RNAse was distributed into sealed 0.75 ml serum flasks filled with N2 which were stored at 4° C. until use. […] Blood clotting activities of purified r-hFIX and plasma hFIX were determined with the Activated Partial Thromboplastin Time (APPT) kit APTT-SP (liquid)-0020006300 from Instrumentation Laboratory, Lexington, Mass. […]

γ-carboxylase = assay: FLEEL γ-carboxylation in extracted rat liver microsomes triggered by reduced RNAse; type: biochemical; settings: 40 μM vitamin K1 2,3-epoxide, no DTT
Description: Rat liver microsomes extracted of luminal and peripherally bound membrane proteins (see Experimental Procedures) were tested for FLEEL γ-carboxylation when the reaction was triggered by reduced RNAse (black bar) and reduced vitamin K1H2 (shaded bar). When reduced RNAse was used, the test system contained 40 μM vitamin K1 2,3-epoxide as the source of the γ-carboxylase cofactor. No DTT was present in the assays. Each bar represents the average activity of three parallel incubations. Standard deviation is shown on each bar.
For removal of microsomal luminal and peripherally bound membrane proteins, microsomes obtained from 4 g of rat liver were suspended in 8 ml of 100 mM Na2CO3, 1.2 M KCl, 0.025% deoxycholate, pH 11.5 with a Potter Elvehjelm glass homogenizer and centrifuged at 100,000×g for 45 min (14). […]
Warfarin sensitive VKOR activity was measured as described (19) by estimating the percent conversion of vitamin K1 2,3-epoxide (Vit.K>O) to vitamin K1. The vitamin and the epoxide were separated on a reversed phase C18 column in 100% methanol and quantified against external standards. […] Blood clotting activities of purified r-hFIX and plasma hFIX were determined with the Activated Partial Thromboplastin Time (APPT) kit APTT-SP (liquid)-0020006300 from Instrumentation Laboratory, Lexington, Mass. […]

With “r-hFIX: functional recombinant human factor IX purified from medium of engineered BHK cells” the “specific activity of functional r-hFIX” value (blood clotting activity) was 147 units/mg.

B1: reduced RNAse: bovine ribonuclease B reduced with DTT; used to trigger VKOR activity (protein, UniProt P61823 27-150, looked up)
Ribonuclease pancreatic: KETAAAKFERQHMDSSTSAASSSNYCNQMMKSRNLTKDRCKPVNTFVHESLADVQAVCSQKNVACKNGQTNCYQSYSTMSITDCRETGSSKYPNCAYKTTQANKHIIVACEGNPYVPVHFDASV
modifications: reduced with DTT
With B1 the “FLEEL γ-carboxylation triggered by reduced RNAse” value (γ-carboxylase) was “to the same extent as chemically reduced vitamin K1H2”.

— US8647868B2, “Compositions and methods for increasing production of recombinant gamma-carboxylated proteins” (Wake Forest University Health Sciences, priority 2005, dated 2014)
